This passage reports Kd results from paper PMC9352680, “A comprehensive thermodynamic model for RNA binding by the Saccharomyces cerevisiae Pumilio protein PUF4”.

The chains are these.
T1: PUF4 RNA-binding domain (Saccharomyces cerevisiae, UniProt P25339 537-888)
T1 sequence: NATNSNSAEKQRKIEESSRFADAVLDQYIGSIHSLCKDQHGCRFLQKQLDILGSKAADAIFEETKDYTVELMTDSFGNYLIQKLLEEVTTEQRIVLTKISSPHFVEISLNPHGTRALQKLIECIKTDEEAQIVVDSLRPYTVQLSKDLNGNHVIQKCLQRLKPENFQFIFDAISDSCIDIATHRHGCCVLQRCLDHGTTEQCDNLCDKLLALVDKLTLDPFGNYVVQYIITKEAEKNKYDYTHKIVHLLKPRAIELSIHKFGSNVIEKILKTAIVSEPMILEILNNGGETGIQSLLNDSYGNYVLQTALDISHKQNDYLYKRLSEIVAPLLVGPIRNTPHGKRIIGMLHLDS

B1: Ib_S1_P3E.1_K3.1_C3.1_H3.1_[T1C]_[A4G]_A3.1_F3.1_T3.1 (ssRNA)
RNA: UCUCUUCGUGUAUAUCUCUU
B2: Ic_S1_P5E.1_K5.1_C5.1_H5.1_A5.1_[T5A]_[T6A]_[A7T]_F5.1_[T9G]_[A10T]_T5.1 (ssRNA)
RNA: UCUCUUUGUAAAUUGUUCUCUU
B3: Ic_S1_P5E.1_K5.1_C5.1_H5.1_A5.1_[A7T]_F5.1_[T8A]_[T9A]_[A10T]_T5.1 (ssRNA)
RNA: UCUCUUUGUAUUUAAUUCUCUU
B4: Ic_S1_P5E.1_K5.1_C5.1_H5.1_A5.1_[T5A]_[T6A]_F5.1_[A10G]_T5.1 (ssRNA)
RNA: UCUCUUUGUAAAAUUGUCUCUU
B5: Ic_S1_P5E.1_K5.1_C5.1_H5.1_A5.1_[A7T]_F5.1_[T8G]_[T9C]_[A10G]_T5.1 (ssRNA)
RNA: UCUCUUUGUAUUUGCGUCUCUU
B6: Ic_S1_P5E.1_K5.1_C5.1_H5.1_A5.1_[T5A]_[T6A]_[A7C]_F5.1_[T9A]_T5.1 (ssRNA)
RNA: UCUCUUUGUAAACUAAUCUCUU
B7: Ic_S1_P5E.1_K5.1_C5.1_H5.1_A5.1_[T5A]_[T6A]_F5.1_[T8C]_[T9C]_[A10G]_T5.1 (ssRNA)
RNA: UCUCUUUGUAAAACCGUCUCUU
B8: Ic_S1_P5E.1_K5.1_C5.1_H5.1_A5.1_[T5C]_[T6C]_F5.1_[T8G]_[A10C]_T5.1 (ssRNA)
RNA: UCUCUUUGUACCAGUCUCUCUU
B9: Ic_S1_P5E.1_K5.1_C5.1_H5.1_A5.1_[T5C]_[T6G]_[A7C]_F5.1_[T8C]_[T9C]_[A10C]_T5.1 (ssRNA)
RNA: UCUCUUUGUACGCCCCUCUCUU
B10: Ic_S1_P5E.1_K5.1_C5.1_H5.1_A5.1_[T5G]_[T6C]_F5.1_[T9C]_T5.1 (ssRNA)
RNA: UCUCUUUGUAGCAUCAUCUCUU
B11: Ic_S1_P5E.1_K5.1_C5.1_H5.1_A5.1_[T6A]_[A7G]_F5.1_[T8C]_[T9C]_[A10T]_T5.1 (ssRNA)
RNA: UCUCUUUGUAUAGCCUUCUCUU
B12: Ic_S1_P5E.1_K5.1_C5.1_H5.1_A5.1_[T5A]_[T6A]_[A7C]_F5.1_[T9G]_[A10T]_T5.1 (ssRNA)
RNA: UCUCUUUGUAAACUGUUCUCUU
B13: Ic_S1_P5E.1_K5.1_C5.1_H5.1_A5.1_[T5C]_[T6G]_[A7G]_F5.1_[T9C]_[A10G]_T5.1 (ssRNA)
RNA: UCUCUUUGUACGGUCGUCUCUU
B14: Ic_S1_P5E.1_K5.1_C5.1_H5.1_A5.1_[T5C]_[T6C]_[A7T]_F5.1_[T9G]_[A10G]_T5.1 (ssRNA)
RNA: UCUCUUUGUACCUUGGUCUCUU
B15: Ic_S1_P5E.1_K5.1_C5.1_H5.1_A5.1_[T6A]_[A7C]_F5.1_[T8C]_[T9C]_[A10T]_T5.1 (ssRNA)
RNA: UCUCUUUGUAUACCCUUCUCUU
B16: Ic_S1_P5E.1_K5.1_C5.1_H5.1_A5.1_[T5C]_[T6A]_[A7C]_F5.1_[T9C]_[A10C]_T5.1 (ssRNA)
RNA: UCUCUUUGUACACUCCUCUCUU
B17: Ic_S1_P5E.1_K5.1_C5.1_H5.1_A5.1_[T5A]_F5.1_[T8A]_[A10T]_T5.1 (ssRNA)
RNA: UCUCUUUGUAAUAAUUUCUCUU
B18: Ic_S1_P5E.1_K5.1_C5.1_H5.1_A5.1_[A7T]_F5.1_[T8G]_[T9C]_[A10T]_T5.1 (ssRNA)
RNA: UCUCUUUGUAUUUGCUUCUCUU
B19: Ic_S1_P5E.1_K5.1_C5.1_H5.1_A5.1_[A7C]_F5.1_[T8G]_[T9G]_[A10T]_T5.1 (ssRNA)
RNA: UCUCUUUGUAUUCGGUUCUCUU
B20: Ic_S1_P5E.1_K5.1_C5.1_H5.1_A5.1_[T5C]_[T6G]_[A7C]_F5.1_[T8G]_[A10C]_T5.1 (ssRNA)
RNA: UCUCUUUGUACGCGUCUCUCUU
B21: Ic_S1_P5E.1_K5.1_C5.1_H5.1_A5.1_[T5C]_[T6A]_F5.1_[T9A]_T5.1 (ssRNA)
RNA: UCUCUUUGUACAAUAAUCUCUU
B22: Ic_S1_P5E.1_K5.1_C5.1_H5.1_A5.1_[T5C]_[T6A]_[A7G]_F5.1_[T8C]_[T9A]_[A10T]_T5.1 (ssRNA)
RNA: UCUCUUUGUACAGCAUUCUCUU
B23: Ic_S1_P5E.1_K5.1_C5.1_H5.1_A5.1_[T5C]_[A7T]_F5.1_[T8C]_[T9G]_[A10T]_T5.1 (ssRNA)
RNA: UCUCUUUGUACUUCGUUCUCUU
B24: Ic_S1_P5E.1_K5.1_C5.1_H5.1_A5.1_[T6G]_[A7T]_F5.1_[T8G]_[T9G]_[A10T]_T5.1 (ssRNA)
RNA: UCUCUUUGUAUGUGGUUCUCUU
B25: Ic_S1_P5E.1_K5.1_C5.1_H5.1_A5.1_[T5G]_[T6C]_F5.1_[T8C]_T5.1 (ssRNA)
RNA: UCUCUUUGUAGCACUAUCUCUU
B26: Ic_S1_P5E.1_K5.1_C5.1_H5.1_A5.1_[T5A]_[T6C]_[A7G]_F5.1_[T8A]_[T9C]_[A10T]_T5.1 (ssRNA)
RNA: UCUCUUUGUAACGACUUCUCUU
B27: Ic_S1_P5E.1_K5.1_C5.1_H5.1_A5.1_[T5G]_[T6C]_F5.1_[T9A]_[A10G]_T5.1 (ssRNA)
RNA: UCUCUUUGUAGCAUAGUCUCUU
B28: Ic_S1_P5E.1_K5.1_C5.1_H5.1_A5.1_[T5A]_[T6C]_[A7C]_F5.1_[T9C]_[A10G]_T5.1 (ssRNA)
RNA: UCUCUUUGUAACCUCGUCUCUU
B29: Ic_S1_P5E.1_K5.1_C5.1_H5.1_A5.1_[T5A]_[A7C]_F5.1_[T9C]_[A10T]_T5.1 (ssRNA)
RNA: UCUCUUUGUAAUCUCUUCUCUU
B30: Ic_S1_P5E.1_K5.1_C5.1_H5.1_A5.1_[T5A]_[A7C]_F5.1_[T9G]_T5.1 (ssRNA)
RNA: UCUCUUUGUAAUCUGAUCUCUU

The data set deals with T1, PUF4 RNA-binding domain. The experiment in a line: Mg; RNA-MaP; 20 mM Na-HEPES pH 7.4, 30 mM KOAc, 0.75 mM MgCl2, 0.1% Tween-20, 5% glycerol, 0.1 mg/mL BSA, 2 mM DTT; 25 C; 0.0125-409.6 nM protein. The following applies: tags: N-His6-TEV cleaved; C-SNAP kept, Cy3B-labelled; label: tethered on chip by stalled RNA polymerase.
For B1, the dissociation constant (Kd) (commonly the constant that tells how readily two partners part at equilibrium) stood at 0.0267 µM.

B2 registered a Kd of 0.0115 µM.

For the molecule B3, the Kd was determined as 0.0462 µM.

B4 returned a Kd of 0.0224 µM.

Molecule B5 gave a dissociation constant Kd of 0.659 µM.

B6 displayed an equilibrium dissociation constant (Kd) of 0.00301 µM.

As to B7, binding was characterised by a dissociation constant (Kd) of 1.19 µM.

B8: the affinity, expressed as Kd, was 0.363 µM.

B9 displayed a Kd of 0.662 µM.

Consider B10, for which the dissociation constant (Kd) turned out to be 0.287 µM.

In turn, B11 gave an equilibrium dissociation constant (Kd) of 0.114 µM.

B12 had a Kd of 0.0126 µM.

The molecule B13 gave a Kd of over 2.3 µM.

B14 gave an equilibrium dissociation constant (Kd) of 0.103 µM.

As for B15, the Kd came to 0.103 µM.

Molecule B16 came in with a dissociation constant (Kd) of 0.00765 µM.

Regarding B17, the affinity, expressed as Kd, was 0.325 µM.

With B18, binding was put at a Kd of 0.325 µM.

The molecule B19 had a dissociation constant (Kd) of 0.578 µM.

Take B20: the Kd came to 1.98 µM.

On to B21, for which the equilibrium dissociation constant (Kd) is 0.00194 µM.

B22 showed a Kd of 0.0234 µM.

In the case of B23, the affinity, expressed as Kd, was 0.352 µM.

On to B24, for which the dissociation constant Kd was 0.421 µM.

As to B25, the Kd stood at 0.0456 µM.

For the molecule B26, the Kd is over 2.3 µM.

As for B27, the equilibrium dissociation constant (Kd) was 0.00957 µM.

In the case of B28, the Kd came to 0.123 µM.

As for B29, the Kd came to 0.44 µM.

As to B30, binding was put at a Kd of 0.0834 µM.
